From patent publication US20120165244A1, “METHODS FOR BINDING LEWIS Y ANTIGEN” (priority 2008, published 2012)

Experiments:
[1] = system: RAW 264.7 cells; experiment: LPS-induced TNF-α production in RAW 264.7 cells (ELISA); format: cell-based, murine
Description: (§1) Human leukemia monocytic THP-1 cells and murine macrophage cell line RAW 264.7 were obtained from the American Type Culture Collection. THP-1 cells were grown in suspension in RPMI-1640 supplemented with 10 mM HEPES, 1 mM sodium pyruvate, 0.1% β-mercaptoethanol, 100 U/ml penicillin, 100 µg/ml streptomycin, and 10% fetal bovine serum (FBS). RAW 264.7 cells were grown as an adhered layer in Dulbecco's modified Eagle's medium with 4 mM L-glutamine adjusted to contain 1.5 g/l sodium bicarbonate and 4.5 g/l glucose, 100 U/ml penicillin, […] streptomycin, and 10% FBS under a humidified 5% CO2 atmosphere at 37° C. For differentiation, THP-1 cells were plated in medium containing 10 nM PMA and allowed to adhere for 18 h.
(§2) TNF-α in conditioned medium or mouse serum was measured by an enzyme-linked immunosorbent assay (ELISA) (R&D Systems, Minneapolis, Minn.). Accumulation of nitrite in the medium or mouse serum was determined by a colorimetric assay using Griess reagent (Sigma-Aldrich). Blood urea nitrogen (BUN) and creatinine were measured with a Roche D&P modular (Roche Diagnostic Systems, Branchburg, N.J.). Assays were performed according to the manufacturer's protocol.

[2] = system: RAW 264.7 cells; experiment: LPS-induced NO production in RAW 264.7 cells (Griess reagent); format: cell-based, murine; conditions: pre-incubated with LPS, 6 hours incubation (FIG. 1B)
Description: as §1, §2

[3] = Chronic endotoxemia model (LPS 20 mg/kg i.p.) in mice; format: in vivo, Male FVB mice
Description: as §2
Male FVB mice (8-10 weeks old) were used to model sepsis in vivo. The Institutional Animal Care and Use Committee of the National Cheng Kung University approved procedures. In the chronic endotoxemia model, various concentrations of rTMD1 or rTMD proteins in equi-molar amounts were administrated by tail intravenous (i.v.) injection and LPS (20 mg/kg) or K. pneumoniae (5×10^2 CFU/mouse, BCRC) was administrated by intraperitoneal (i.p.) injection. After 6 or 12 hours, mice were sacrificed by pentobarbital anesthesia (50 mg/kg; i.p.). Sera were collected and assayed for TNF-α, NO, BUN, and creatinine, and lung and kidney tissues were removed, fixed with formalin, and embedded in paraffin for histochemical examination. In the lethal sepsis model, rTMD1 (2 mg/kg, equals 87.3 nmole/kg) was i.v.-administrated at 0, 6, 12, and 24 hours after i.p. administration of LPS (40 mg/kg). The half-life of rTMD1 in the circulation was determined by i.v. injection of rTMD1 (10 mg/kg, equals 436.64 nmole/kg) and serum samples were collected at various time intervals. The levels of rTMD1 in the collected sera were determined by a sandwich ELISA which employed anti-c-Myc monoclonal antibody and TM-H300 as capture and detection antibodies (both from Santa Cruz Biotechnology), respectively. For the lethal bacteremia model, rTMD1 (10 mg/kg) was administrated prior to i.p. injection of K. pneumoniae (5×10^3 CFU/mouse). Mortality was monitored every 6-12 hours until all mice in either experimental group died. Experimental procedure of determining LPS half-life is as following. LPS (20 mg/kg) was i.p.-administrated to male FVB mice without or with rTMD1 (10 mg/kg; i.v.). Serum samples were collected at various time intervals and the amount of LPS was determined by Limulus amebocyte lysate test (Associates of Cape Cod, E. Falmouth, Mass.). A further experiment was performed to determine whether rTMD1 affects bacterial clearance. K. pneumoniae (5×10^2 CFU/mouse) was i.p.-administrated to male FVB mice without or with rTMD1 (10 mg/kg; i.v.), and blood samples were collected at various time intervals. Outgrowth of K. pneumoniae was quantified by plating serial dilutions of blood samples on blood agar plates and enumerating colonies after overnight incubation at 37° C.

[4] = Half-life of rTMD1 in the circulation (sandwich ELISA); format: in vivo, Male FVB mice; conditions: mice
Description: (§3) Male FVB mice (8-10 weeks old) were used to model sepsis in vivo. The Institutional Animal Care and Use Committee of the National Cheng Kung University approved procedures. In the chronic endotoxemia model, various concentrations of rTMD1 or rTMD proteins in equi-molar amounts were administrated by tail intravenous (i.v.) injection and LPS (20 mg/kg) or K. pneumoniae (5×10^2 CFU/mouse, BCRC) was administrated by intraperitoneal (i.p.) injection. After 6 or 12 hours, mice were sacrificed by pentobarbital anesthesia (50 mg/kg; i.p.). […] The half-life of rTMD1 in the circulation was determined by i.v. injection of rTMD1 (10 mg/kg, equals 436.64 nmole/kg) and serum samples were collected at various time intervals. The levels of rTMD1 in the collected sera were determined by a sandwich ELISA which employed anti-c-Myc monoclonal antibody and TM-H300 as capture and detection antibodies (both from Santa Cruz Biotechnology), respectively. […] Mortality was monitored every 6-12 hours until all mice in either experimental group died. […] Serum samples were collected at various time intervals and the amount of LPS was determined by Limulus amebocyte lysate test (Associates of Cape Cod, E. Falmouth, Mass.). […] Outgrowth of K. pneumoniae was quantified by plating serial dilutions of blood samples on blood agar plates and enumerating colonies after overnight incubation at 37° C.

[5] = Clearance of LPS in circulation (Limulus amebocyte lysate test); format: in vivo; conditions: LPS 20 mg/kg i.p.; rTMD1 10 mg/kg i.v.
Description: as §3

[6] = system: K. pneumoniae; experiment: K. pneumoniae clearance in circulation (viable CFU counts in blood); format: in vivo, male FVB mice
Description: as §3

[7] = system: K. pneumoniae; experiment: K. pneumoniae binding assay (coated wells); conditions: FIG. 4A
Description: K. pneumoniae (3×10^5 CFU/well), E. coli O111:B4 smooth-type LPS (5 μg/well), or bovine serum albumin (BSA, 5 μg/well) in 100 μL of bicarbonate buffer (pH 9.6) were coated onto wells of high-binding microtiter plate (Corning Costar, Cambridge, Mass.). Nonspecific binding was blocked with binding buffer (20 mM Tris-HCl, pH 7.4, 0.15 M NaCl, 5 mM CaCl2) containing 50 mg/mL BSA. Various concentrations of rTMD proteins without or with CD14 (10 μg/mL; R&D Systems) in binding buffer containing 1 mg/mL BSA were added to wells and incubated for 2 hours. In some experiments, 0.2 M mannose, 5 mM EDTA, or Le^y were included in the binding buffer to compete with LPS and rTMD1 binding. Antibody against the c-Myc epitope of the rTMD proteins was added to wells and incubated for 2 hours, and peroxidase-labeled secondary antibody followed. Binding of rTMD proteins was detected by measuring absorbance at 450 nm.

[8] = system: K. pneumoniae; experiment: Bacterial agglutination, FITC-labeled K. pneumoniae; conditions: 20 μg/mL protein, 5 mM CaCl2
Description: (§4) K. pneumoniae and E. coli DH5α (BCRC) were washed twice in 0.1 M sodium bicarbonate buffer (pH 9.6) and incubated with 0.1 mg/mL fluorescein isothiocyanate (FITC) at 37° C. in the dark. Each of 20 μg/mL of rTMD1, non-tagged rTMD1, mammalian rTMD1, and recombinant TM domains 2 and 3 (rTMD23) was co-incubated with FITC-labeled bacteria (1×10^5CFU/mL) in buffer (20 mM Tris, pH 7.4, 0.15 M NaCl, 5 mM CaCl2, 1 mg/mL BSA) with or without 0.2 M mannose or 5 mM EDTA. Samples were individually placed on a glass slide and fluorescently-labeled bacteria were observed microscopically to evaluate agglutination.

[9] = system: E. coli DH5α; experiment: Bacterial agglutination, FITC-labeled E. coli DH5α; conditions: 20 μg/mL protein, 5 mM CaCl2
Description: as §4

[10] = 12 hours after LPS, compared with LPS-treated mice
[11] = rTMD1 1-5 mg/kg i.v., 6 hours after LPS 20 mg/kg i.p.

B1: rTMD1: recombinant human thrombomodulin N-terminal lectin-like domain (residues Ala1-Ala155) with 6×His tag and c-Myc epitope, Pichia pastoris expressed (protein)
chain: EFAPAEPQPGGSQCVEHDCFALYPGPATFLNASQICDGLRGHLMTVRSSVAADVISLLLNGDGGVGRRRLWIGLQLPPGCGDPKRLGPLRGFQWVTGDNNTSYSRWARLDLNGAPLCGPLCVAVSAAEATVPSEPIWEEQQCEVKADGFLCEFHFPAYLEDDDDKIEQKLISEEDLNSAVDHHHHHH
modifications: left off: small tags and cut ends
[1]; pre-incubated with LPS, 6 hours incubation (FIG. 1A)
  TNF-α production in RAW 264.7 cells stimulated with LPS: dose-dependently inhibited
[1]; various concentrations of LPS and rTMD1 (FIG. 1C)
  LPS-induced TNF-α production: dose-dependently inhibited
[2]
  NO production in RAW 264.7 cells: effectively inhibit
[3]; 6 hours after LPS administration (FIG. 2C-D)
  pulmonary accumulation of PMNs / LPS-induced inflammatory responses: significantly inhibited
[3]; [10]
  BUN level: markedly reduced
  serum creatinine level: markedly reduced
[3]; kidney, 12 hours after LPS 20 mg/kg (FIG. 2E)
  extent of glomerulonephritis: significantly reduced
[3]; [11]
  NO levels in mice: significantly decreasing levels
  TNF-α levels in mice: significantly decreasing levels
[4]; i.v.
  time detectable after each i.v. injection: ≤ 12 h
[4]; i.v. 10 mg/kg
  half-life in circulation: 3 to 4 h
[5]
  LPS clearance: significantly enhanced
[6]; 12, 24, 36 hours after infection, rTMD1 given up to 30 or 60 minutes after infection
  K. pneumoniae clearance in circulation, post-treatment: enhance
[6]; 12, 24, and 36 hours after injection, rTMD1 10 mg/kg i.v., 5×10^2 CFU
  K. pneumoniae clearance in circulation: significantly enhanced
[7]
  binding to K. pneumoniae: specifically bind
[8]
  agglutination of K. pneumoniae: induced marked agglutination
[9]
  agglutination of E. coli DH5α: induced marked agglutination
